# Data reported in US20260232827A1 (Zymeworks, published 2026).
# T1: human sodium-dependent phosphate transporter 2B (NaPi2b) (human, UniProt O95436 1-690)
# T1 construct: Endogenous on tumor cell lines (IGROV-1, OVCAR-3, HCC-78, TOV-21G, NCI-H441) or transfected into HEK293-6e cells with pTT5-huNaPi2b (CL_#13432); also called Hu NaPi2b; hNaPi2b
# T1 sequence: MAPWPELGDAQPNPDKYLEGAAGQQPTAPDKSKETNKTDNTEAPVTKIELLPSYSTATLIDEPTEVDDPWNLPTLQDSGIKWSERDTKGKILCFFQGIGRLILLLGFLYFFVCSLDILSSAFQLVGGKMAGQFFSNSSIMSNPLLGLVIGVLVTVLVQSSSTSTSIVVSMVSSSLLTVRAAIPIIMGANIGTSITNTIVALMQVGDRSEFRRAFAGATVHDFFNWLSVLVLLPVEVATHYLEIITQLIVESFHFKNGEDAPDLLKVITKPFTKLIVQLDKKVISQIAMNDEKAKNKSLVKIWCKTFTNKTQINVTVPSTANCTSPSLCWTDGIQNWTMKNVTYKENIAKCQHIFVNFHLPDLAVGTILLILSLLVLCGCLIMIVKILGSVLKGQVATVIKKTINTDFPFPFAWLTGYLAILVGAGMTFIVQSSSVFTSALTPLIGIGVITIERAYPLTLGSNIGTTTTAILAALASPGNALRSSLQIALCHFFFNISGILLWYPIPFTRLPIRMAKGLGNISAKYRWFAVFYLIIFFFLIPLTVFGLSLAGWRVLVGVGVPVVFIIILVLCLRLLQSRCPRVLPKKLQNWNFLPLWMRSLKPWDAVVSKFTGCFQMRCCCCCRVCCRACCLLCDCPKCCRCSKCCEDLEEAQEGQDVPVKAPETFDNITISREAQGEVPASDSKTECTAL
# T2: mouse NaPi2b (mouse, UniProt Q9DBP0 1-697)
# T2 construct: Transfected into HEK293-6e cells (clone CL_#13476); also called Ms NaPi2b
# T2 sequence: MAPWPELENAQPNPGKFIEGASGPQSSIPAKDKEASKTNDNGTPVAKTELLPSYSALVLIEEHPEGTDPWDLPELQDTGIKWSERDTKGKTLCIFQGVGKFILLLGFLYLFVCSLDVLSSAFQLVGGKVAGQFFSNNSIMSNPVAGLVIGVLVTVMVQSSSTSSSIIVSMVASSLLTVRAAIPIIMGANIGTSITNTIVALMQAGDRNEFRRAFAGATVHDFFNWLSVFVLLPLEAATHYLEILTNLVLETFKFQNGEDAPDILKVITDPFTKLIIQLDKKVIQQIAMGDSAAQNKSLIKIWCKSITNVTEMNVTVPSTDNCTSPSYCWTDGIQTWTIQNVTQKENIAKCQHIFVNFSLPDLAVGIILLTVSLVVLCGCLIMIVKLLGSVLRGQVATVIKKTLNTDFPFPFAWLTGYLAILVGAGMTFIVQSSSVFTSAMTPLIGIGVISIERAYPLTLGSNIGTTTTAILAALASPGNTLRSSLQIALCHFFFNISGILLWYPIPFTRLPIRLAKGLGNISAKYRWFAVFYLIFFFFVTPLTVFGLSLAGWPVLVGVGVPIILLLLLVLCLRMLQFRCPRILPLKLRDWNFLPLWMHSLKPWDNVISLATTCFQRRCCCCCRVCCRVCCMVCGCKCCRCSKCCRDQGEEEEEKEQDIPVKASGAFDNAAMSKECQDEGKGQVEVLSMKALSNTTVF
# T3: cynomolgus monkey NaPi2b (cynomolgus monkey, UniProt O95436 1-690 (human entry))
# T3 construct: Transfected into HEK293-6e cells (clone CL_#13433); also called Cy NaPi2b; Cyno NaPi2b
# T3 chain: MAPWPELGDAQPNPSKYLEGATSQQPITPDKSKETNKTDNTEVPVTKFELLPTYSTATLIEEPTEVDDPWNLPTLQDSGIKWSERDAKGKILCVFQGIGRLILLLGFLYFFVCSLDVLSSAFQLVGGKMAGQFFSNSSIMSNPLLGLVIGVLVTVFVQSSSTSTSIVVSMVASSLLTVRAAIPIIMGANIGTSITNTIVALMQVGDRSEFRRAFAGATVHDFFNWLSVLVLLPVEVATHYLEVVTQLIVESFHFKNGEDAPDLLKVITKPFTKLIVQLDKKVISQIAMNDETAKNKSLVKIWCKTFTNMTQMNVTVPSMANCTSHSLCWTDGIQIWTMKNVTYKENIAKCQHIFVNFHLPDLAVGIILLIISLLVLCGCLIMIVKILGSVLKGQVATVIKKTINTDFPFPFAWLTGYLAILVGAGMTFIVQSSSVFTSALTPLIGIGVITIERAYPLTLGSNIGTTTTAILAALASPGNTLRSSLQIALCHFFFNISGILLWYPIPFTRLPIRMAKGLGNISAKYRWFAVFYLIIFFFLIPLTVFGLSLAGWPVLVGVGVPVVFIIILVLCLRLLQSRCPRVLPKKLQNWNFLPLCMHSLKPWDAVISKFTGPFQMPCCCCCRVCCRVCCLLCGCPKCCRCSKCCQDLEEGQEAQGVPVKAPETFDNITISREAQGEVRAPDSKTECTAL
# T4: human sodium-dependent phosphate transporter 2B (NaPi2b) (human, UniProt O95436 1-690)
# T4 construct: UniProt ID is given as 095436 [sic]; also called hNaPi2b; Hu NaPi2b
# T4 sequence: T1 sequence
# B1: v18992 (MX35) (antibody, human IgG1, kappa)
# heavy 1: GQVQLVQSGAEVVKPGASVKMSCKASGYTFTGYNIHWVKQAPGQGLEWIGAIYPGNGDTSYKQKFRGRATLTADTSTSTVYMELSSLRSEDSAVYYCARGETARATFAYWGQGTLVTVSSASTKGPSVFPLAPSSKSTSGGTAALGCLVKDYFPEPVTVSWNSGALTSGVHTFPAVLQSSGLYSLSSVVTVPSSSLGTQTYICNVNHKPSNTKVDKKVEPKSCDKTHTCPPCPAPELLGGPSVFLFPPKPKDTLMISRTPEVTCVVVDVSHEDPEVKFNWYVDGVEVHNAKTKPREEQYNSTYRVVSVLTVLHQDWLNGKEYKCKVSNKALPAPIEKTISKAKGQPREPQVYVYPPSRDELTKNQVSLTCLVKGFYPSDIAVEWESNGQPENNYKTTPPVLDSDGSFALVSKLTVDKSRWQQGNVFSCSVMHEALHNHYTQKSLSLSPG
# heavy 2: not shown
# light: GDIQMTQSPSSLSASVGDRVTITCSASQDIGNFLNWYQQKPGKTVKVLIYYTSSLYSGVPSRFSGSGSGTDYTLTISSLQPEDFATYYCQQYSKLPLTFGQGTKLELKRTVAAPSVFIFPPSDEQLKSGTASVVCLLNNFYPREAKVQWKVDNALQSGNSQESVTEQDSKDSTYSLSSTLTLSKADYEKHKVYACEVTHQGLSSPVTKSFNRGEC
# notes: Two different heavy chains (heterodimeric Fc)
# B2: v18992 (MX35)-DL2 (antibody, human IgG1, kappa)
# heavy 1: B1 heavy 1
# heavy 2: not shown
# light: B1 light
# modifications: as above; maleimide functionalized auristatin drug linker (DL2); sites and DAR not stated
# notes: also called MX35-DL2 ADC
# B3: v29452 (H1L3) (antibody, human IgG1, kappa, V domains shown)
# VH: QVQLVQSGAEVKKPGASVKVSCKASGFTFTSYNVHWVRQAPGQGLEWMGAISPGNGDLSYAQKFQGRVTMTRDTSTSTVYMELSSLRSEDTAVYYCARGRTGMGAVDYWGQGTLVTVSS
# VL: DVQMTQSPSSLSASVGDRVTITCRASQDVYSYLNWYQQKPGKAVKLLIYYTSRLQSGVPSRFSGSGSGTDYTLTISSLQPEDIATYYCQQYNIFPWTFGQGTKLEIKR
# notes: Humanized IgG1/kappa
# B4: v36124 (monovalent format of humanized antibody variant 29456) (antibody, V domains shown)
# VH: B3 VH
# VL: DVQMTQSPSSLSASVGDRVTITCRASQDVYSYLNWYQQKPGKAVKLLIYYTSRLQSGVPSRFSGSGSGTDYTLTISSLQPEDFATYYCQQYNIFPWTFGQGTKLEIK
# notes: Monovalent format; rest of the construct not described; also called VH1/VL2
# B5: v29814 (monovalent format of parental chimeric variant 23855) (antibody, V domains shown)
# VH: QAYLQQSGAELVRPGASVKMSCKASGFTFTSYNVHWVKQTPRQGLEWIAAISPGNGDLSYNQRFKDKATLTVDRSSSTAYMQLSGLTSEDSAVYFCARGRTGMGAVDYWGQGTSVTVSS
# VL: DVQMTQTASSLSASLGDRVTISCRASQDVYSYLNWYQQKPHGTVKLLIYYTSRLQSGVPSRFTGSGSGTDYSLTISNLEPEDIATYYCQQYNIFPWTFGGGTKLEIK
# notes: Monovalent format; VH and VL are those of v23855; also called parental chimeric monovalent antibody variant
# Experiments:
# [1] = biological target: T1, human sodium-dependent phosphate …; assay: flow cytometry on HEK293-6e cells transfected with human NaPi2b
# [2] = biological target: T1, human sodium-dependent phosphate …; assay: flow cytometry on HEK293-6e cells transfected with human NaPi2b, apparent Kd
# mouse NaPi2b [3] = biological target: T2, mouse NaPi2b; assay: flow cytometry on HEK293-6e cells transfected with mouse NaPi2b
# cynomolgus monkey NaPi2b [4] = biological target: T3, cynomolgus monkey NaPi2b; assay: flow cytometry on HEK293-6e cells transfected with cynomolgus NaPi2b
# [5] = biological target: T1, human sodium-dependent phosphate …; assay: cell-based or functional assay
# [6] = biological target: T1, human sodium-dependent phosphate …; assay: flow cytometry on HEK293-6e cells transfected with human NaPi2b; remark: listed apart in the source
# [7] = biological target: T1, human sodium-dependent phosphate …; assay: flow cytometry on OVCAR-3 cells, 24 h at 4 C, anti-human IgG Fc AF647
# cynomolgus monkey NaPi2b [8] = biological target: T3, cynomolgus monkey NaPi2b; assay: flow cytometry on HEK293-6e cells transfected with cynomolgus NaPi2b, apparent Kd
# [9] = biological target: T1, human sodium-dependent phosphate …; assay: flow cytometry on HEK293-6e cells transfected with human NaPi2b, apparent Kd; remark: listed apart in the source
# mouse NaPi2b [10] = biological target: T2, mouse NaPi2b; assay: flow cytometry on HEK293-6e cells transfected with mouse NaPi2b, apparent Kd
# [11] = biological target: T1, human sodium-dependent phosphate …; assay: flow cytometry on IGROV-1 cells, 24 h at 4 C, anti-human IgG Fc AF647
# [12] = biological target: T4, human sodium-dependent phosphate …; assay: flow cytometry on IGROV-1 cells (endogenous NaPi2b), 24 h at 4 C, anti-human IgG Fc AF647
# [13] = biological target: T4, human sodium-dependent phosphate …; assay: flow cytometry, IGROV-1 cells (endogenous NaPi2b); design: unit not given here
# [14] = biological target: T4, human sodium-dependent phosphate …; assay: flow cytometry, IGROV-1 cells (endogenous NaPi2b); apparent Kd
# [15] = biological target: T5, KLH (Sigma-Aldrich, H8283); assay: non-specific ELISA, KLH coated, antibody 100 nM
# T5 construct: Coating of the non-specific ELISA
# [16] = biological target: T4, human sodium-dependent phosphate …; assay: KinExA, monovalent antibody, IGROV-1 cells (endogenous NaPi2b) as titrant, N-curve analysis
binder,measurement,setting,value
B1,Bmax,[1],548
same,Kd,[2],1.51 nM
same,Bmax,mouse NaPi2b [3],379
same,Bmax,cynomolgus monkey NaPi2b [4],378
same,"Internalized Fluorescence in OVCAR-3, 15 min, 100 nM",[5],6650
same,"Internalized Fluorescence in OVCAR-3, 4 hr, 100 nM",[5],16100
same,"Internalized Fluorescence in OVCAR-3, 16 hr, 100 nM",[5],18600
same,"Internalized Fluorescence in OVCAR-3, 24 hr, 100 nM",[5],28600
same,Bmax,[6],548
same,Bmax,[7],14500
same,Kd,[7],3.03 nM
same,Kd,cynomolgus monkey NaPi2b [8],0.67 nM
same,Kd,[9],1.51 nM
same,Kd,mouse NaPi2b [10],0.35 nM
same,Bmax,[11],21400
same,Kd,[11],1.49 nM
B2,EC50 (read off the curve),[12],1 to 1.7 nM
same,Bmax,[13],41200
same,Kd,[14],1.22 nM
B3,Bmax,[13],47800
same,NS-ELISA binding score (signal over buffer well),[15],1.34
same,Kd,[14],1.6 nM
B4,Kd,[16],0.283 nM
B5,Kd,[16],0.15 nM
